Assay results from publication PMC8741639 (Structure (London, England : 1993), 2021).

Target: the molecule itself
Assay: cryo-EM structure

B1: AcrA, periplasmic membrane fusion protein of the AcrAB-TolC efflux pump (natural protein)
chain: CDDKQAQQGGQQMPAVGVVTVKTEPLQITTELPGRTSAYRIAEVRPQVSGIILKRNFKEGSDIEAGVSLYQIDPATYQATYDSAKGDLAKAQAAANIAQLTVNRYQKLLGTQYISKQEYDQALADAQQANAAVTAAKAAVETARINLAYTKVTSPISGRIGKSNVTEGALVQNGQATALATVQQLDPIYVDVTQSSNDFLRLKQELANGTLKQENGKAKVSLITSDGIKFPQDGTLEFSDVTVDQTTGSITLRAIFPNPDHTLLPGMFVRARLEEGLNPNAILVPQQGVTRTPRGDATVLVVGADDKVETRPIVASQAIGDKWLVTEGLKAGDRVVISGLQKVRPGVQVKAQEVTADNNQQAASGAQPEQSKS
stoichiometry N: 6
